The values below come from patent publication US20190367617A1 (AMPSOURCE BIOPHARMA SHANGHAI, published 2019).

The target of assay [1] is T1, human ICOS/Fc (Sino Biological Inc.) (human, UniProt Q9Y6W8 21-141, limits assumed).
T1 construct: Bought protein; not shown: Fc
T1 sequence (looked up): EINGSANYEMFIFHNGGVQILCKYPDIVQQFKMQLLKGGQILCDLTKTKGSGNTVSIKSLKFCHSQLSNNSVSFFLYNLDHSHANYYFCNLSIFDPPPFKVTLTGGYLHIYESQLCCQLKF
Put plainly: indirect ELISA, human ICOS/Fc coated at 0.1 µg/mL, HRP goat anti-mouse IgG. On the procedure: (§1) Human PD-1/His, human ICOS/Fc, human CTLA4/His, human CD28/Fc, cynomolgus monkey PD-1/Fc, and mouse PD-1/His (all from Sino Biological Inc., Beijing, China) were diluted with PBS buffer to 0.1 μg/mL, and added to the 96-well plate at a volume of 100 μL/well and placed at 16° C. for 16 to 20 h. The PBS buffer was aspirated from the 96-well plate, and the plate was washed once with PBST (PBS containing 0.05% Tween 20, pH 7.4). 200 μL of PBST/1% no-fat milk was added to each well and incubated at room temperature for 1 h for blocking. The blocking solution was removed and the plate was washed 3 times with PBST. 100 μL of the anti-PD-1 antibody to be tested was added to each well, and incubated at room temperature for 1.5 h. The reaction solution was removed and the plate was washed 3 times with PBST. 50 μL of the HRP-labeled goat anti-mouse IgG secondary antibody (The Jackson Laboratory) diluted (dilution ratio 1:4000) was added to each well. Incubated at room temperature for 1 h. The plate was washed 3 times with PBST. 100 μL of the TMB was added to each well and incubated at room temperature for 5-10 min 50 μL of 0.2 M sulfuric acid was added to each well to terminate the reaction. Absorbance values were read at dual wavelengths of 450/620 nm in a microplate reader.
(In an ELISA, binding on a coated surface is turned into a signal by an enzyme label.)

In assay [2] the target is T2, cynomolgus monkey PD-1/Fc (Sino Biological Inc.) (cynomolgus monkey, UniProt B0LAJ3 25-170).
T2 construct: Bought protein
Put plainly: indirect ELISA, cynomolgus monkey PD-1/Fc coated at 0.1 µg/mL, HRP goat anti-mouse IgG. As to the method: as §1

For assay [3], the target named is T3, human CD28/Fc (Sino Biological Inc.) (human, UniProt P10747 19-152).
T3 construct: Bought protein; not shown: Fc
As to the kind of experiment: indirect ELISA, human CD28/Fc coated at 0.1 µg/mL, HRP goat anti-mouse IgG. On the procedure:
as §1

The target in assay [4] is T4, human PD-1/His (Sino Biological Inc.) (human, UniProt Q15116 25-170).
T4 construct: extracellular domain; Bought protein; also called extracellular domain fragment of PD-1 protein containing His tag; not shown: His tag
As to the kind of experiment: BLI (Octet), human PD-1/His on Ni-NTA sensor, antibody 3.125-100 nM. The source says: We used the bio-layer interferometry (BLI) technique to characterize the binding kinetics and affinity of purified murine monoclonal antibodies. According to the standard procedure, the Octet molecular interaction instrument (ForteBio Octet RED & QK system, PALL corp.) was operated. […] The antigen-antibody association and dissociation kinetics were then tracked.
(In general: BLI is a label-free optical method that tracks binding on a fibre tip over time.)

Assay [5] has as its target T4, human PD-1/His (Sino Biological Inc.). As to the kind of experiment: indirect ELISA, human PD-1/His coated at 0.1 µg/mL, HRP goat anti-mouse IgG. On the procedure: as §1
Assay [6] has as its target T5, mouse PD-1/His (Sino Biological Inc.) (mouse, UniProt Q02242 25-167).
T5 construct: Bought protein; not shown: His tag
T5 sequence (looked up): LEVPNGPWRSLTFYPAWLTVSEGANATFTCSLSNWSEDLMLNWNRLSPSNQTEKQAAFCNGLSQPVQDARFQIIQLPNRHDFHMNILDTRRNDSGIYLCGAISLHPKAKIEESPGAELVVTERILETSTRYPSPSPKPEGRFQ
As to the kind of experiment: indirect ELISA, mouse PD-1/His coated at 0.1 µg/mL, HRP goat anti-mouse IgG. On the procedure: as §1

Assay [7] addresses T6, human CTLA4/His (Sino Biological Inc.) (human, UniProt P16410 36-162, limits assumed).
T6 construct: Bought protein; not shown: His tag
Put plainly: indirect ELISA, human CTLA4/His coated at 0.1 µg/mL, HRP goat anti-mouse IgG. On the procedure:
as §1

Assay [8] concerns the target T7, Human PD-1 (Sino Biological Inc., Beijing, China) (human, UniProt Q15116 25-167).
T7 construct: also called hPD-1
Put plainly: indirect ELISA, human PD-1 coated at 0.1 µg/mL. As to the method:
The PBS buffer was aspirated from the 96-well plate, and the plate was washed once with PBST (PBS containing 0.05% Tween 20, pH 7.4). 200 μL of PBST/1% no-fat milk was added to each well and incubated at room temperature for 1 h for blocking. The blocking solution was removed and the plate was washed 3 times with PBST. […] The reaction solution was removed and the plate was washed 3 times with PBST. […] The plate was washed 3 times with PBST.

T4 sequence (Q15116 25-170): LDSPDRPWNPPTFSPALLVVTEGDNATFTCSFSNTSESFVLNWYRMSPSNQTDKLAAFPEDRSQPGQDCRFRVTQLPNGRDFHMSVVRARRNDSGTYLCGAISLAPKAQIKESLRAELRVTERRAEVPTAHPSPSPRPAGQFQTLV
T7 sequence (Q15116 25-167 limits assumed): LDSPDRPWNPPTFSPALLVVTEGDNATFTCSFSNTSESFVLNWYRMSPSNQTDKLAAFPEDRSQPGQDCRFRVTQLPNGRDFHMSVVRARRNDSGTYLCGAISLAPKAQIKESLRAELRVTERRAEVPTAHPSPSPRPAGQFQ
T6 sequence (P16410 36-162 limits assumed): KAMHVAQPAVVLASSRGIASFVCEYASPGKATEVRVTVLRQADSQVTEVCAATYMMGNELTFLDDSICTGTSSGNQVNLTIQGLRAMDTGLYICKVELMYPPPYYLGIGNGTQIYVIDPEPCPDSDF
T2 sequence (B0LAJ3 entry or part of it limits assumed): as the sequence (Q15116 25-170) above, with D2E, P10A, V19L, T35A, Q75R, T144A counted along it

B1: murine monoclonal antibody AB12M1 (antibody, mouse IgG2b, V domains shown)
VH: EVKLVESGGGLVKPGGSLKLSCAASGFTFSSYGMSWVRQTPEKRLEWVATISGGGRDTYYPDSVKGRFTISRDNAKNNLYLQMSSLRSEDTALYYCARQKDTSWFVHWGQGTLVTVSA
VL: not shown
notes: subclass identified as mouse IgG2b (Kappa), purified from hybridoma supernatant; also called antibody of hybridoma clone #32
Consider B1, for which the binding result in assay [1], in assay [3], in assay [6] and in assay [7] was “no binding (tested: 10 µg/mL)” each time. In addition, the “EC50 (read off the curve)” value was around 3 ng/mL in assay [2] and around 4 ng/mL in assay [5]. In addition, in assay [4], the Kd was below 1 pM. Also, in assay [4], the koff is below 1e-07 s⁻¹. Also, in assay [4], the kon is 109000 M⁻¹ s⁻¹. In addition, in assay [8], the EC50 was around 2 ng/mL.

Broadly, the EC50 (read off the curve) is the midpoint of the concentration-response curve. A word on the Kd: it is the constant that tells how readily two partners part at equilibrium. For orientation: koff means a measure of how fast the partners let go of each other. What is called kon is a measure of how fast the partners come together. Broadly, the EC50 is the midpoint of the concentration-response curve.
